Results reported in the RNAGym collection of RNA variant scans (doi:10.7554/elife.90254).

B1: OR4K15 (parent)
chain: GUUAACGGUCAUAGGCCAUGGAAACUAGGAGCACCAUUUCGCUGCCAGUGAAGAAAUGAACAAAGAAAAUCUGGGCCAGGCAGGCAUCAAAAGAAAUAGUCUUGCGCUCAACCAGAAAGUCUGUAAUCAUUUUAAGGGUA

Variants of: B1
Assay: self-cleavage, relative activity (ratio to wild type); higher = more cleavage; in vitro, sequencing; the parent is a self-cleaving ribozyme

Point of comparison: GUUAACGGUCAUAGGCCAUGGAAACUAGGAGCACCAUUUCGCUGCCAGUGAAGAAAUGAACAAAGAAAAUCUGGGCCAGGCAGGCAUCAAAAGAAAUAGUCUUGCUCUCAACCAGAAAGUCUGUAACCAUUUUAAGGGUA [G106U U127C], self-cleavage 0.01. Against it:
- GUUAACGGUCAUAGGCCAUGGAAACUAGGAGCACCAUUUCGCUGCCAGUGAAGAAAUGAACAAAGAAAAUCUGGGCCAGGCAGGCAUCAAAAGAAAUAGUCUUGUGCCCAACCAGAAAGUCUGUAAUCAUUUUAAGGGUA [C105U U108C] — higher, 0.02
- GUUAACGGUCAUAGGCCAUGGAAACUAGGAGCACCAUUUCGCUGCCAGUGAAGAAAUGAACAAAGAAAAUCUGGGCCAGGCAGGCAUCAAAAGAAAUAGUCUUGCACCCAACCAGAAAGUCUGUAAUCAUUUUAAGGGUA [G106A U108C] — lower, 0
- GUUAACGGUCAUAGGCCAUGGAAACUAGGAGCACCAUUUCGCUGCCAGUGAAGAAAUGAACAAAGAAAAUCUGGGCCAGGCAGGCAUCAAAAGAAAUAGUCUUGCACUCAACCAGAAAGUCUGCAAUCAUUUUAAGGGUA [G106A U124C] — the same, 0.01
- GUUAACGGUCAUAGGCCAUGGAAACUAGGAGCACCAUUUCGCUGCCAGUGAAGAAAUGAACAAAGAAAAUCUGGGCCAGGCAGGCAUCAAAAGAAAUAGUCUUGUGCUCAACCAGAAAGUCUGUAAUCAUUUUAAGGGCA [C105U U139C] — higher, 0.08
- GUUAACGGUCAUAGGCCAUGGAAACUAGGAGCACCAUUUCGCUGCCAGUGAAGAAAUGAACAAAGAAAAUCUGGGCCAGGCAGGCAUCAAAAGAAAUAGUCUUGCACUCAACCAGAAAGUCUGUAAUCAUUUUAAGGGUU [G106A A140U] — higher, 0.05
- GUUAACGGUCAUAGGCCAUGGAAACUAGGAGCACCAUUUCGCUGCCAGUGAAGAAAUGAACAAAGAAAAUCUGGGCCAGGCAGGCAUCAAAAGAAAUAGUCUUGCUCUCAACCAGAAAGUCUGUAAUCGUUUUAAGGGUA [G106U A129G] — the same, 0.01
- GUUAACGGUCAUAGGCCAUGGAAACUAGGAGCACCAUUUCGCUGCCAGUGAAGAAAUGAACAAAGAAAAUCUGGGCCAGGCAGGCAUCAAAAGAAAUAGUCUUGCGCACGACCAGAAAGUCUGUAAUCAUUUUAAGGGUA [U108A A110G] — the same, 0.01
- GUUAACGGUCAUAGGCCAUGGAAACUAGGAGCACCAUUUCGCUGCCAGUGAAGAAAUGAACAAAGAAAAUCUGGGCCAGGCAGGCAUCAAAAGAAAUAGUCUUGCGAUCAACCAGAAAGUCUGUAAUCAUUUUAAGGGUA [C107A] — higher, 0.03
- GUUAACGGUCAUAGGCCAUGGAAACUAGGAGCACCAUUUCGCUGCCAGUGAAGAAAUGAACAAAGAAAAUCUGGGCCAGGCAGGCAUCAAAAGAAAUAGUCUUGCGGUCAACCAGAAAGUCUGUAAUCAUUUUAAGGGUA [C107G] — higher, 0.02
- GUUAACGGUCAUAGGCCAUGGAAACUAGGAGCACCAUUUCGCUGCCAGUGAAGAAAUGAACAAAGAAAAUCUGGGCCAGGCAGGCAUCAAAAGAAAUAGUCUUGCGUUCAACCAGAAAGUCUGUAAUCAUUUUAAGGGUA [C107U] — higher, 0.02
- GUUAACGGUCAUAGGCCAUGGAAACUAGGAGCACCAUUUCGCUGCCAGUGAAGAAAUGAACAAAGAAAAUCUGGGCCAGGCAGGCAUCAAAAGAAAUAGUCUUGCACUCAACCAGAAGGUCUGUAAUCAUUUUAAGGGUA [G106A A118G] — higher, 0.02
- GUUAACGGUCAUAGGCCAUGGAAACUAGGAGCACCAUUUCGCUGCCAGUGAAGAAAUGAACAAAGAAAAUCUGGGCCAGGCAGGCAUCAAAAGAAAUAGUCUUGCACUCAACCAGAAUGUCUGUAAUCAUUUUAAGGGUA [G106A A118U] — lower, 0
- GUUAACGGUCAUAGGCCAUGGAAACUAGGAGCACCAUUUCGCUGCCAGUGAAGAAAUGAACAAAGAAAAUCUGGGCCAGGCAGGCAUCAAAAGAAAUAGUCUUGUGCUCAACCAGAAAGUCCGUAAUCAUUUUAAGGGUA [C105U U122C] — higher, 0.11
- GUUAACGGUCAUAGGCCAUGGAAACUAGGAGCACCAUUUCGCUGCCAGUGAAGAAAUGAACAAAGAAAAUCUGGGCCAGGCAGGCAUCAAAAGAAAUAGUCUUGUGCUCAACCAGAAAGUCAGUAAUCAUUUUAAGGGUA [C105U U122A] — higher, 0.27
- GUUAACGGUCAUAGGCCAUGGAAACUAGGAGCACCAUUUCGCUGCCAGUGAAGAAAUGAACAAAGAAAAUCUGGGCCAGGCAGGCAUCAAAAGAAAUAGUCUUGCGCACAACCAGAAAGUCUGUAAUCAUUUUAAGGGUC [U108A A140C] — higher, 0.04
- GUUAACGGUCAUAGGCCAUGGAAACUAGGAGCACCAUUUCGCUGCCAGUGAAGAAAUGAACAAAGAAAAUCUGGGCCAGGCAGGCAUCAAAAGAAAUAGUCUUGCGCACAACCAGAAAGUCUGUAAUCAUUUUAAGGGUG [U108A A140G] — lower, 0
- GUUAACGGUCAUAGGCCAUGGAAACUAGGAGCACCAUUUCGCUGCCAGUGAAGAAAUGAACAAAGAAAAUCUGGGCCAGGCAGGCAUCAAAAGAAAUAGUCUUGCACUCAACCAGAAAGUCUGUAAUCAUCUUAAGGGUA [G106A U131C] — higher, 0.03
- GUUAACGGUCAUAGGCCAUGGAAACUAGGAGCACCAUUUCGCUGCCAGUGAAGAAAUGAACAAAGAAAAUCUGGGCCAGGCAGGCAUCAAAAGAAAUAGUCUUGCGGUCAACCAGAGAGUCUGUAAUCAUUUUAAGGGUA [C107G A117G] — the same, 0.01
- GUUAACGGUCAUAGGCCAUGGAAACUAGGAGCACCAUUUCGCUGCCAGUGAAGAAAUGAACAAAGAAAAUCUGGGCCAGGCAGGCAUCAAAAGAAAUAGUCUUGCGCACAACCUGAAAGUCUGUAAUCAUUUUAAGGGUA [U108A A114U] — lower, 0
- GUUAACGGUCAUAGGCCAUGGAAACUAGGAGCACCAUUUCGCUGCCAGUGAAGAAAUGAACAAAGAAAAUCUGGGCCAGGCAGGCAUCAAAAGAAAUAGUCUUGUGCUCAACCAGAAAGCCUGUAAUCAUUUUAAGGGUA [C105U U120C] — higher, 0.05
- GUUAACGGUCAUAGGCCAUGGAAACUAGGAGCACCAUUUCGCUGCCAGUGAAGAAAUGAACAAAGAAAAUCUGGGCCAGGCAGGCAUCAAAAGAAAUAGUCUUGCACUCAACCAGAAAGUCUGUAAUCAUUUUAGGGGUA [G106A A135G] — higher, 0.02
- GUUAACGGUCAUAGGCCAUGGAAACUAGGAGCACCAUUUCGCUGCCAGUGAAGAAAUGAACAAAGAAAAUCUGGGCCAGGCAGGCAUCAAAAGAAAUAGUCUUGCGCACAACCAGAAAGUCUGUAAUCAUUUUAAGGGUA [U108A] — higher, 0.02
- GUUAACGGUCAUAGGCCAUGGAAACUAGGAGCACCAUUUCGCUGCCAGUGAAGAAAUGAACAAAGAAAAUCUGGGCCAGGCAGGCAUCAAAAGAAAUAGUCUUGCGAUCAACCAGAAAGUCUGUAAUCAUUUAAAGGGUA [C107A U133A] — higher, 0.02
- GUUAACGGUCAUAGGCCAUGGAAACUAGGAGCACCAUUUCGCUGCCAGUGAAGAAAUGAACAAAGAAAAUCUGGGCCAGGCAGGCAUCAAAAGAAAUAGUCUUGCGUUCAACCAGAAAGUCAGUAAUCAUUUUAAGGGUA [C107U U122A] — lower, 0
- GUUAACGGUCAUAGGCCAUGGAAACUAGGAGCACCAUUUCGCUGCCAGUGAAGAAAUGAACAAAGAAAAUCUGGGCCAGGCAGGCAUCAAAAGAAAUAGUCUUGCACUCAACCAGAAAGUCUGUAAUCAUUCUAAGGGUA [G106A U132C] — the same, 0.01
- GUUAACGGUCAUAGGCCAUGGAAACUAGGAGCACCAUUUCGCUGCCAGUGAAGAAAUGAACAAAGAAAAUCUGGGCCAGGCAGGCAUCAAAAGAAAUAGUCUUGCACUCAACCAGAAAGUCAGUAAUCAUUUUAAGGGUA [G106A U122A] — the same, 0.01
- GUUAACGGUCAUAGGCCAUGGAAACUAGGAGCACCAUUUCGCUGCCAGUGAAGAAAUGAACAAAGAAAAUCUGGGCCAGGCAGGCAUCAAAAGAAAUAGUCUUGCACUCAACCAGAAAGUCUGUAGUCAUUUUAAGGGUA [G106A A126G] — lower, 0
- GUUAACGGUCAUAGGCCAUGGAAACUAGGAGCACCAUUUCGCUGCCAGUGAAGAAAUGAACAAAGAAAAUCUGGGCCAGGCAGGCAUCAAAAGAAAUAGUCUUGCGCACAACCAGAAAGUCUUUAAUCAUUUUAAGGGUA [U108A G123U] — the same, 0.01
- GUUAACGGUCAUAGGCCAUGGAAACUAGGAGCACCAUUUCGCUGCCAGUGAAGAAAUGAACAAAGAAAAUCUGGGCCAGGCAGGCAUCAAAAGAAAUAGUCUUGCGCACAACCAGAAAGUCUCUAAUCAUUUUAAGGGUA [U108A G123C] — the same, 0.01
- GUUAACGGUCAUAGGCCAUGGAAACUAGGAGCACCAUUUCGCUGCCAGUGAAGAAAUGAACAAAGAAAAUCUGGGCCAGGCAGGCAUCAAAAGAAAUAGUCUUGCCCUCAACCAGAAAGUCUGUAAUCUUUUUAAGGGUA [G106C A129U] — lower, 0
- GUUAACGGUCAUAGGCCAUGGAAACUAGGAGCACCAUUUCGCUGCCAGUGAAGAAAUGAACAAAGAAAAUCUGGGCCAGGCAGGCAUCAAAAGAAAUAGUCUUGCCCUCAACCAGAAAGUCUGUAACCAUUUUAAGGGUA [G106C U127C] — lower, 0
- GUUAACGGUCAUAGGCCAUGGAAACUAGGAGCACCAUUUCGCUGCCAGUGAAGAAAUGAACAAAGAAAAUCUGGGCCAGGCAGGCAUCAAAAGAAAUAGUCUUGCGACCAACCAGAAAGUCUGUAAUCAUUUUAAGGGUA [C107A U108C] — higher, 0.02
- GUUAACGGUCAUAGGCCAUGGAAACUAGGAGCACCAUUUCGCUGCCAGUGAAGAAAUGAACAAAGAAAAUCUGGGCCAGGCAGGCAUCAAAAGAAAUAGUCUUGCGUUCAACCAGAAAGUUUGUAAUCAUUUUAAGGGUA [C107U C121U] — the same, 0.01
- GUUAACGGUCAUAGGCCAUGGAAACUAGGAGCACCAUUUCGCUGCCAGUGAAGAAAUGAACAAAGAAAAUCUGGGCCAGGCAGGCAUCAAAAGAAAUAGUCUUGCCCCCAACCAGAAAGUCUGUAAUCAUUUUAAGGGUA [G106C U108C] — lower, 0
- GUUAACGGUCAUAGGCCAUGGAAACUAGGAGCACCAUUUCGCUGCCAGUGAAGAAAUGAACAAAGAAAAUCUGGGCCAGGCAGGCAUCAAAAGAAAUAGUCUUGCCCUCAACCAGGAAGUCUGUAAUCAUUUUAAGGGUA [G106C A116G] — the same, 0.01
- GUUAACGGUCAUAGGCCAUGGAAACUAGGAGCACCAUUUCGCUGCCAGUGAAGAAAUGAACAAAGAAAAUCUGGGCCAGGCAGGCAUCAAAAGAAAUAGUCUUGCACUCAACCAGAAAGUCUGUAAUCAUUUUAAGGGAA [G106A U139A] — lower, 0
- GUUAACGGUCAUAGGCCAUGGAAACUAGGAGCACCAUUUCGCUGCCAGUGAAGAAAUGAACAAAGAAAAUCUGGGCCAGGCAGGCAUCAAAAGAAAUAGUCUUGCGCACAACCAGAAAGUCUGUAAUCUUUUUAAGGGUA [U108A A129U] — higher, 0.03
- GUUAACGGUCAUAGGCCAUGGAAACUAGGAGCACCAUUUCGCUGCCAGUGAAGAAAUGAACAAAGAAAAUCUGGGCCAGGCAGGCAUCAAAAGAAAUAGUCUUGCACUCGACCAGAAAGUCUGUAAUCAUUUUAAGGGUA [G106A A110G] — the same, 0.01
- GUUAACGGUCAUAGGCCAUGGAAACUAGGAGCACCAUUUCGCUGCCAGUGAAGAAAUGAACAAAGAAAAUCUGGGCCAGGCAGGCAUCAAAAGAAAUAGUCUUGCGCACAACCAGGAAGUCUGUAAUCAUUUUAAGGGUA [U108A A116G] — the same, 0.01
- GUUAACGGUCAUAGGCCAUGGAAACUAGGAGCACCAUUUCGCUGCCAGUGAAGAAAUGAACAAAGAAAAUCUGGGCCAGGCAGGCAUCAAAAGAAAUAGUCUUGCGCACAACCAGAAAGUUUGUAAUCAUUUUAAGGGUA [U108A C121U] — lower, 0
